{"source": "paper PMC6424611", "details_in_all_cases": "reference: unphosphorylated peptide; sites S732", "key": {"[1]": {"target": "ARHGEF12 PDZ domain (UniProt Q9NZN5)", "test": "SPR, biotin-peptide on streptavidin chip"}, "[2]": {"target": "GOPC PDZ domain (UniProt Q9HD26)", "test": "SPR, biotin-peptide on streptavidin chip"}, "[3]": {"target": "MAST1 PDZ domain (UniProt Q9Y2H9)", "test": "SPR, biotin-peptide on streptavidin chip"}, "[4]": {"target": "MAST2 PDZ domain (UniProt Q6P0Q8)", "test": "SPR, biotin-peptide on streptavidin chip"}, "[5]": {"target": "PDZD7 PDZ domain 3 (UniProt Q9H5P4)", "test": "SPR, biotin-peptide on streptavidin chip"}, "[6]": {"target": "ARHGEF11 PDZ domain (UniProt O15085)", "test": "automated holdup, biotin-peptide resin"}, "[7]": {"target": "DFNB31 PDZ domain 3 (UniProt Q9P202)", "test": "automated holdup, biotin-peptide resin"}, "[8]": {"target": "DLG4 PDZ domain 2 (UniProt P78352)", "test": "automated holdup, biotin-peptide resin"}, "[9]": {"target": "GORASP1 PDZ domain (UniProt Q9BQQ3)", "test": "automated holdup, biotin-peptide resin"}, "[10]": {"target": "GORASP2 PDZ domain (UniProt Q9H8Y8)", "test": "automated holdup, biotin-peptide resin"}, "[11]": {"target": "GRASP PDZ domain (UniProt Q7Z6J2)", "test": "automated holdup, biotin-peptide resin"}, "[12]": {"target": "GRID2IP PDZ domain 1 (UniProt A4D2P6)", "test": "automated holdup, biotin-peptide resin"}, "[13]": {"target": "HTRA1 PDZ domain (UniProt Q92743)", "test": "automated holdup, biotin-peptide resin"}, "[14]": {"target": "LAP2 PDZ domain (UniProt Q96RT1)", "sequence (Q96RT1 whole entry, looked up, the tested form may be a part)": "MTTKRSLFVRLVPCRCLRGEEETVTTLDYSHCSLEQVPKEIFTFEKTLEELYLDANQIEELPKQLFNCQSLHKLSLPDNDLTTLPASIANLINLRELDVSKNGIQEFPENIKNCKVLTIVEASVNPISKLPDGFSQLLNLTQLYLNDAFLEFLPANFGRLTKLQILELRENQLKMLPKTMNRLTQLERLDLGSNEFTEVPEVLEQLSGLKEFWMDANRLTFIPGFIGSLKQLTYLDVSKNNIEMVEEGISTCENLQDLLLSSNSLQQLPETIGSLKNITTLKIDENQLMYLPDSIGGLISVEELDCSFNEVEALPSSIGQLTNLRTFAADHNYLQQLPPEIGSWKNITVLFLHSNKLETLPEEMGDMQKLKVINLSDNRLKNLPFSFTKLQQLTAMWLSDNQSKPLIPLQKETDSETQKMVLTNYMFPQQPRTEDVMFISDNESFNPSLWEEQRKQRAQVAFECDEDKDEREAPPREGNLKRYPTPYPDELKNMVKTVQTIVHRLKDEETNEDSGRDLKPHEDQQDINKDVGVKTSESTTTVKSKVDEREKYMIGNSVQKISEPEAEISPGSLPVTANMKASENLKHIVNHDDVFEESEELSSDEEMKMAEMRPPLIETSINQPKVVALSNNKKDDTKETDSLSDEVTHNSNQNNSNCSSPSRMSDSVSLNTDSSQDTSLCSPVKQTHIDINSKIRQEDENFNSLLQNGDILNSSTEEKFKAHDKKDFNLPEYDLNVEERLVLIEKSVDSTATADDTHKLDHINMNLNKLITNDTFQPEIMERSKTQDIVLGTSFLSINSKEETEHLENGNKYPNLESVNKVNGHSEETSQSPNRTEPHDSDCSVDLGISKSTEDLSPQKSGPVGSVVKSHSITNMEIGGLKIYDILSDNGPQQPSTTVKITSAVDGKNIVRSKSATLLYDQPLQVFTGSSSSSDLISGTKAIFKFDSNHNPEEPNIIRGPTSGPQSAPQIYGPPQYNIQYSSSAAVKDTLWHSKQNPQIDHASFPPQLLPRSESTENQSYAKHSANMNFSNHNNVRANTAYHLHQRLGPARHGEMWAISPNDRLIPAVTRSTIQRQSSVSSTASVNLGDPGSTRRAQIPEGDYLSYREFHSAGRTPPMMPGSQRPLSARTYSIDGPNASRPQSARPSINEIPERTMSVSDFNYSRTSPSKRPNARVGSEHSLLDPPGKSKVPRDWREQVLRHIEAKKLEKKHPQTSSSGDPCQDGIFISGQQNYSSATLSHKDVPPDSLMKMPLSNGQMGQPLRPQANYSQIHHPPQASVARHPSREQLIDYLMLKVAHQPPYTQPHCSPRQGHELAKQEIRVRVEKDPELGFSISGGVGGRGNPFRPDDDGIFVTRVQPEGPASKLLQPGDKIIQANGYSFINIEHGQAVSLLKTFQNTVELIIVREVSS", "test": "automated holdup, biotin-peptide resin"}, "[15]": {"target": "LIMK2 PDZ domain (UniProt P53671)", "test": "automated holdup, biotin-peptide resin"}, "[16]": {"target": "LNX1 PDZ domain 3 (UniProt Q8TBB1)", "test": "automated holdup, biotin-peptide resin"}, "[17]": {"target": "MAGI1 PDZ domain 2 (UniProt Q96QZ7)", "test": "automated holdup, biotin-peptide resin"}, "[18]": {"target": "MAGI2 PDZ domain 2 (UniProt Q86UL8)", "test": "automated holdup, biotin-peptide resin"}, "[19]": {"target": "MAGI3 PDZ domain 2 (UniProt Q5TCQ9)", "sequence (Q5TCQ9 whole entry, looked up, the tested form may be a part)": "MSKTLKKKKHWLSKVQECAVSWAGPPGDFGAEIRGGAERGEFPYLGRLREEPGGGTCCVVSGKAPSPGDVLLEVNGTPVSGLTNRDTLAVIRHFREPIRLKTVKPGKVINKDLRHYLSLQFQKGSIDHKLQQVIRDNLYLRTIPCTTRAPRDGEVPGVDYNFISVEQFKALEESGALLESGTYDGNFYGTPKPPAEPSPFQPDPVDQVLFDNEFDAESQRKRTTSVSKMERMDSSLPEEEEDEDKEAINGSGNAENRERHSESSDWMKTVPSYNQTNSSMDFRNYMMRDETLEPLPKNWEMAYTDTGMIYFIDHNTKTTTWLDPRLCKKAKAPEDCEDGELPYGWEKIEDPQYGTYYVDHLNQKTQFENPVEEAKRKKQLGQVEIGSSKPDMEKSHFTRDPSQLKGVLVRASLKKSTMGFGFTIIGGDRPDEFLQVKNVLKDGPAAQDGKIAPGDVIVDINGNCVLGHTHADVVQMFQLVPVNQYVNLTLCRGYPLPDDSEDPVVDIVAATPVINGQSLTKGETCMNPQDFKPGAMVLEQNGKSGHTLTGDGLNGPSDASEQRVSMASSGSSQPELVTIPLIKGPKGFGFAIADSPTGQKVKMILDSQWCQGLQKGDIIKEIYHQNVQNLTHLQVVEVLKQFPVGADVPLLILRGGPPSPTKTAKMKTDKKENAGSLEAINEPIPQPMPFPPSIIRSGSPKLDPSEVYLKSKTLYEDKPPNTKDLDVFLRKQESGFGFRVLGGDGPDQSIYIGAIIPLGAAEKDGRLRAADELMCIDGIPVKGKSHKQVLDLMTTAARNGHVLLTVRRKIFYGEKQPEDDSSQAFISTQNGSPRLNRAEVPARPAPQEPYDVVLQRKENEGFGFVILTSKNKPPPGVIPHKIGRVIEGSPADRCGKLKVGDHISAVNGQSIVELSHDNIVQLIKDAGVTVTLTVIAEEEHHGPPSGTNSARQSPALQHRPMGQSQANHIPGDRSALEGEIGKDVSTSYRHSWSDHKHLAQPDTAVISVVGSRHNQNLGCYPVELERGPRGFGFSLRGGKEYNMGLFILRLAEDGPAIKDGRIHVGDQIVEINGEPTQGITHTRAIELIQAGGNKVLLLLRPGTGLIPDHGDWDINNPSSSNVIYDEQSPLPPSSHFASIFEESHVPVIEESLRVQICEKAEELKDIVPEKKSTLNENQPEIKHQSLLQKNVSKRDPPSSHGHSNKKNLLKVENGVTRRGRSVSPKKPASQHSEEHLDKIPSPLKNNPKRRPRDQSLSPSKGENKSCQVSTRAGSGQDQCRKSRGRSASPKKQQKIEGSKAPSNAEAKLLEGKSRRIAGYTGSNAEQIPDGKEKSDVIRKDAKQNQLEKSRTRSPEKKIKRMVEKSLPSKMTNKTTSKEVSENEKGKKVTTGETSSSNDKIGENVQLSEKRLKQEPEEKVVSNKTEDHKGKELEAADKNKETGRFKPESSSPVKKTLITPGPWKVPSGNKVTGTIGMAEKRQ", "test": "automated holdup, biotin-peptide resin"}, "[20]": {"target": "NHERF2 PDZ domain 2 (UniProt Q15599)", "sequence (Q15599 whole entry, looked up, the tested form may be a part)": "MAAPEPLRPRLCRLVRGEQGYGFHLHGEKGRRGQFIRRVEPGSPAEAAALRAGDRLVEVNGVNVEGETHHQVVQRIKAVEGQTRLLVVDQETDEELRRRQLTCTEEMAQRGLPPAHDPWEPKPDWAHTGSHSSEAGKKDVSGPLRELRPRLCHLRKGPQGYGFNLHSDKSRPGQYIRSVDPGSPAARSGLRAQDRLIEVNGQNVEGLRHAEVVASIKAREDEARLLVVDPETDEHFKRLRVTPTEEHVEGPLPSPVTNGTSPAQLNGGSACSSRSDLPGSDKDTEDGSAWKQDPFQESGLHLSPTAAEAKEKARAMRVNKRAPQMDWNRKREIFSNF", "test": "automated holdup, biotin-peptide resin"}, "[21]": {"target": "NHERF3 PDZ domain 1 (UniProt Q5T2W1)", "test": "automated holdup, biotin-peptide resin"}, "[22]": {"target": "PDZRN3 PDZ domain 1 (UniProt Q9UPQ7)", "test": "automated holdup, biotin-peptide resin"}, "[23]": {"target": "PPP1R9A PDZ domain (UniProt Q9ULJ8)", "test": "automated holdup, biotin-peptide resin"}, "[24]": {"target": "PTPN3 PDZ domain (UniProt P26045)", "test": "automated holdup, biotin-peptide resin"}, "[25]": {"target": "SHANK3 PDZ domain (UniProt Q9BYB0)", "test": "automated holdup, biotin-peptide resin"}, "[26]": {"target": "SHROOM2 PDZ domain (UniProt Q13796)", "sequence (Q13796 whole entry, looked up, the tested form may be a part)": "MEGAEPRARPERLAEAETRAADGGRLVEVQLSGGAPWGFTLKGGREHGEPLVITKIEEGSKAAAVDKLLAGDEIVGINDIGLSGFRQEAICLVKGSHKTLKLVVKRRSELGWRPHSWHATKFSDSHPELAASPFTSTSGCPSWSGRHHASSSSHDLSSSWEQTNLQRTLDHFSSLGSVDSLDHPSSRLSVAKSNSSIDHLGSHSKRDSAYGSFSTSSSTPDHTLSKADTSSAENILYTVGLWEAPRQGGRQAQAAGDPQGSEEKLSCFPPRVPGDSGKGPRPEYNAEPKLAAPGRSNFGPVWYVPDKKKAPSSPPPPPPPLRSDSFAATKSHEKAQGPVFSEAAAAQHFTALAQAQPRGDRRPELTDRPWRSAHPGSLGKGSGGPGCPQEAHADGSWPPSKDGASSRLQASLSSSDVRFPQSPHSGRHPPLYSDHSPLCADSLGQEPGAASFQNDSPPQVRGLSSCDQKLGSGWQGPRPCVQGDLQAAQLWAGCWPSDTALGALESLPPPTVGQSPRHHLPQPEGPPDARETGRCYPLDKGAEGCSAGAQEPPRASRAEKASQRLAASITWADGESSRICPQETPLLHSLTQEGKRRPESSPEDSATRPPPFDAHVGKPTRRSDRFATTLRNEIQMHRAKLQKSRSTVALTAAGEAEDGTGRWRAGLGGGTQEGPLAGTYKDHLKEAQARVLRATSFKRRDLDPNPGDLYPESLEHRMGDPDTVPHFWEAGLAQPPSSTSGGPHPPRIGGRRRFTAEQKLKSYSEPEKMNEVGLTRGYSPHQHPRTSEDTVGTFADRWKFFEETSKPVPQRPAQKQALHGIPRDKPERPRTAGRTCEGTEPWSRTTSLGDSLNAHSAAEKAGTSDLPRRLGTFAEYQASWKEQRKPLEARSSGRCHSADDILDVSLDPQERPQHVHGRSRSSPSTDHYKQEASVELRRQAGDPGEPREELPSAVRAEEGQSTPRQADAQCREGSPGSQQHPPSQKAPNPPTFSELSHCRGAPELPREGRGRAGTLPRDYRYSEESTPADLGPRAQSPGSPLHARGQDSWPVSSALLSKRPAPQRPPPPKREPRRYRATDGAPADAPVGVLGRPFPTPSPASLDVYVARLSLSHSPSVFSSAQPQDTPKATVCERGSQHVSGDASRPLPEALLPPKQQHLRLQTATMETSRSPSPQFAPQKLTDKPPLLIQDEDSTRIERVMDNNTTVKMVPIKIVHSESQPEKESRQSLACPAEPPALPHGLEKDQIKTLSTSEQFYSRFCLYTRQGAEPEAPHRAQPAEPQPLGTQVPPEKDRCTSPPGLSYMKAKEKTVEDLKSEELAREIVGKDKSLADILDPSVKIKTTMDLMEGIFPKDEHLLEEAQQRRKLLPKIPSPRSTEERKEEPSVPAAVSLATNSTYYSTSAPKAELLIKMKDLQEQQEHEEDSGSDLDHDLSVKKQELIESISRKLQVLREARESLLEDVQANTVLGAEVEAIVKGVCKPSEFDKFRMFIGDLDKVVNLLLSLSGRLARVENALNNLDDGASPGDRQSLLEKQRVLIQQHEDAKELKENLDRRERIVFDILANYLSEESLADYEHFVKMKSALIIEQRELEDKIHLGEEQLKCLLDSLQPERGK", "test": "automated holdup, biotin-peptide resin"}}, "data": [{"substance": "RSK1 (ribosomal S6 kinase 1) 725-735 (from UniProt Q15418) pS732 peptide", "values": [{"measurement": "KD", "setting": "[1]", "result": "lost; reference 2.79 ± 0.11"}, {"measurement": "KD", "setting": "[2]", "result": "weaker; reference 8.92 ± 0.44"}, {"measurement": "KD", "setting": "[3]", "result": "weaker; reference 20 ± 1"}, {"measurement": "KD", "setting": "[4]", "result": "weaker; reference 7.02 ± 0.27"}, {"measurement": "KD", "setting": "[5]", "result": "weaker; reference 6.2 ± 0.9"}, {"measurement": "other: holdup binding intensity (BI)", "setting": "[6]", "result": "lost; reference 0.28 ± 0.06"}, {"measurement": "other: holdup binding intensity (BI)", "setting": "[7]", "result": "lost; reference 0.23 ± 0.04"}, {"measurement": "other: holdup binding intensity (BI)", "setting": "[8]", "result": "gained; reference 0.11 ± 0.03"}, {"measurement": "other: holdup binding intensity (BI)", "setting": "[9]", "result": "gained; reference 0.01 ± 0.02"}, {"measurement": "other: holdup binding intensity (BI)", "setting": "[10]", "result": "weaker; reference 0.41 ± 0.02"}, {"measurement": "other: holdup binding intensity (BI)", "setting": "[11]", "result": "lost; reference 0.29 ± 0.01"}, {"measurement": "other: holdup binding intensity (BI)", "setting": "[12]", "result": "gained; reference 0.06 ± 0.02"}, {"measurement": "other: holdup binding intensity (BI)", "setting": "[13]", "result": "weaker; reference 0.44 ± 0.03"}, {"measurement": "other: holdup binding intensity (BI)", "setting": "[14]", "result": "gained; reference −0.02 ± 0.05"}, {"measurement": "other: holdup binding intensity (BI)", "setting": "[15]", "result": "gained; reference 0.01 ± 0.06"}, {"measurement": "other: holdup binding intensity (BI)", "setting": "[16]", "result": "gained; reference 0.04 ± 0.02"}, {"measurement": "other: holdup binding intensity (BI)", "setting": "[17]", "result": "weaker; reference 0.43 ± 0.02"}, {"measurement": "other: holdup binding intensity (BI)", "setting": "[18]", "result": "weaker; reference 0.42 ± 0.01"}, {"measurement": "other: holdup binding intensity (BI)", "setting": "[19]", "result": "same; reference 0.28 ± 0.03"}, {"measurement": "other: holdup binding intensity (BI)", "setting": "[20]", "result": "lost; reference 0.20 ± 0.04"}, {"measurement": "other: holdup binding intensity (BI)", "setting": "[21]", "result": "lost; reference 0.41 ± 0.01"}, {"measurement": "other: holdup binding intensity (BI)", "setting": "[22]", "result": "stronger; reference 0.26 ± 0.01"}, {"measurement": "other: holdup binding intensity (BI)", "setting": "[23]", "result": "gained; reference 0.00 ± 0.02"}, {"measurement": "other: holdup binding intensity (BI)", "setting": "[24]", "result": "gained; reference 0.05 ± 0.02"}, {"measurement": "other: holdup binding intensity (BI)", "setting": "[25]", "result": "lost; reference 0.27 ± 0.03"}, {"measurement": "other: holdup binding intensity (BI)", "setting": "[26]", "result": "gained; reference 0.00 ± 0.01"}]}]}
